The values that follow come from US20030013169, “Transcription factor E2F DNA-binding domain inhibitor peptides and their use” (published 2003).

The target of this series is E2F1/DP1 heterodimer (Homo sapiens, UniProt Q01094;Q14186 Q01094:64-301,Q14186:85-249). Put plainly: EMSA; binding inhibited by peptides SEQ 2, 4, 5 with IC50 50-100 uM; about 100-fold lower for MAP-branched SEQ 2; room temperature. The note with it: tags: His-E2F1 (pET28b); GST-DP1; label: 32P fill-in. As for the experimental part: Purified E2F1 N1-His (64-301) and DP1 N2-GST (84-249) were incubated at 10 μg/ml in a buffer containing 10 mM HEPES, […], 1 mM EDTA, […], 33 mg/ml BSA and 0.1 μg of sonicated salmon sperm for 10 minutes on ice. ³²P-labelled probe was added and the reaction mixture was incubated at room temperature for 20 minutes. Probes were labelled by filling-in 5′ overhanging ends of 4-7 bases. Samples were run on 4% non denaturing polyacrylamide gel in 0.5% TBE at 4° C. Gels were exposed to X-ray films. Nuclear extract (3 μg) was incubated in 17 μl buffer containing 0.3 M NaCl, 0.4 M Tris pH 7.9, 100 mM EDTA, 0.4 M DTT, 13% glycerol, 1 μg of sonicated salmon sperm on ice. The samples were then incubated for 10 minutes at 30° C. and cooled on ice. ³²P-labelled probe was added, the reaction mixtures were incubated for another 10 minutes at 30° C. and then cooled on ice.
The inhibitory potential of the peptides on E2F function was analysed in band shift assays with recombinant E2F1 and DP1. […] The IC₅₀ concentrations for the 3 peptides were in the range of 50-100 μM. Inhibition to various extends was also observed using recombinant fragments of E2F2, E2F3, E2F4, E2F5, respectively. Approximately 100-fold lower IC50 values were found with a branched molecule consisting of 4 copies of SEQ ID NO:2 linked by MAP (multiple antigen peptide).
(In general: In EMSA bound probe runs differently from free probe, usually more slowly.)

Sequence of E2F1/DP1 heterodimer (Q01094 64-301, chain 1 of 2): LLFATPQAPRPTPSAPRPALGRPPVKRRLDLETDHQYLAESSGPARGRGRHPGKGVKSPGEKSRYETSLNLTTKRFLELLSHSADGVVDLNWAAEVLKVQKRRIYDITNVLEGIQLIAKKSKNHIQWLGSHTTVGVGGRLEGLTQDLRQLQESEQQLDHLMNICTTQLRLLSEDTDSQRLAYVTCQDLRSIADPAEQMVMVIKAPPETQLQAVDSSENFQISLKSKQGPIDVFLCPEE
Sequence of E2F1/DP1 heterodimer (Q14186 85-249, chain 2 of 2): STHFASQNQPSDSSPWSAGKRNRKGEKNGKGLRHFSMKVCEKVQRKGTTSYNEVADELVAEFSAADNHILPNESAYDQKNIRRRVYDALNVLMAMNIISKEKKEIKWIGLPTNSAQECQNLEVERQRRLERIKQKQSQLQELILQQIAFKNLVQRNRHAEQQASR

B1: B-myb E2F probe (dsDNA)
DNA 1: CGACGCGCTTGGCGGGAGATAGAAAAGTGC
DNA 2: GCACTTTTCTATCTCCCGCCAAGCGCGTCG
As to B1, the binding result was “binds”.
